From US11891445 (ABL BIO, dated 2024) come the findings set out here.

For orientation: EC50 (read off the curve) means the concentration that produces a half-maximal response.

Sequences and labels used below:
T1: recombinant human B7-H3 protein (bought antigen used for ELISA analysis and T cell activity analysis) (human, UniProt Q5ZPR3 29-461)
T1 construct: range 1-461; also called extracellular domain (ECD) of B7-H3 protein; not shown: C-terminal histidine tag or Fc region of human IgG1 (Sino Biological 11188-H02H)
T1 sequence (looked up): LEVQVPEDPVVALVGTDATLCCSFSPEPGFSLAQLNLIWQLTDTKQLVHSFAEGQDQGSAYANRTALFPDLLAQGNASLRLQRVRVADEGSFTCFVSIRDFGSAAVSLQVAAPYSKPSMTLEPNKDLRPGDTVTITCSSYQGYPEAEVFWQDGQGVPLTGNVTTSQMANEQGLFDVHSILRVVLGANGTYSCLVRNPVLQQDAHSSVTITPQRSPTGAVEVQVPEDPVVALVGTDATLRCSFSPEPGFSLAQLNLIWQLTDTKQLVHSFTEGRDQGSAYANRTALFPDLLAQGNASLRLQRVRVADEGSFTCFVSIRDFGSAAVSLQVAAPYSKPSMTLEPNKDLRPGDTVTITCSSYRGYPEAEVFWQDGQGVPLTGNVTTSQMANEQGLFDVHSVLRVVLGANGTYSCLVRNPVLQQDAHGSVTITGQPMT

T2: recombinant human B7-H3 protein with a histidine tag linked to the C terminal (2318-B3/CF, R&D Systems) (human) (UniProt Q5ZPR3)
T2 sequence (looked up): T1 sequence (looked up)

B1: anti-B7-H3 antibody D8G M1 (full IgG form) (antibody, V domains shown)
VH: EVQLLESGGGLVQPGGSLRLSCAASGFTFSSYSMSWVRQAPGKGLEWVSGIYSDASNTYYADSVKGRFTISRDNSKNTLYLQMNSLRAEDTAVYYCAKMLHRFDYWGQGTLVTVSS
VL: QSVLTQPPSASGTPGQRVTISCSGSSSNIGSNSVTWYQQLPGTAPKLLIYADSQRPSGVPDRFSGSKSGTSASLAISGLRSEDEADYYCGTWDSSLNAYVFGGGTKLTVLG
B2: anti-B7-H3 antibody D8G M3 (full IgG form) (antibody, V domains shown)
VH: B1 VH
VL: B1 VL with S53V
B3: anti-B7-H3 scFv clone B5 (soluble monoclonal scFv) (scFv, part only; not given: linker, domain order and HA tag, V domains shown, not shown: another chain or arm of the molecule; small tags and cut ends)
VH: EVQLLESGGGLVQPGGSLRLSCAASGFTFSDYAMSWVRQAPGKGLEWVSSISSGSGSIYYADSVKGRFTISRDNSKNTLYLQMNSLRAEDTAVYYCAKNLIPLDYWGQGTLVTVSS
VL: QSVLTQPPSASGTPGQRVTISCSGSSSNIGSNAVSWYQQLPGTAPKLLIYYNSHRPSGVPDRFSGSKSGTSASLAISGLRSEDEADYYCGSWDASLNAYVFGGGTKLTVL
B4: anti-B7-H3 scFv clone D8G M3 (soluble monoclonal scFv) (scFv, part only; not given: linker, domain order and HA tag, V domains shown, not shown: another chain or arm of the molecule; small tags and cut ends)
VH: B1 VH
VL: B3 VL with A33S, S35T, Y51A, N52D, S53V, H54Q, S91T, A94S
B5: anti-B7-H3 scFv clone D8G (soluble monoclonal scFv) (scFv, part only; not given: linker, domain order and HA tag, V domains shown, not shown: another chain or arm of the molecule; small tags and cut ends)
VH: B1 VH with A55G
VL: B3 VL with A33S, S35T, Y51A, N52D, H54Q, S91T, A94S
B6: anti-B7-H3 scFv clone F6V (soluble monoclonal scFv) (scFv, part only; not given: linker, domain order and HA tag, V domains shown, not shown: another chain or arm of the molecule; small tags and cut ends)
VH: EVQLLESGGGLVQPGGSLRLSCAASGFTFSDYAMSWVRQAPGKGLEWVSGISPGGSNTYYADSVKGRFTISRDNSKNTLYLQMNSLRAEDTAVYYCAKDAWIARLLLFDYWGQGTLVTVSS
VL: B3 VL with S35T, S53N, H54K, S91T, A94D, N97S, A98G
B7: anti-B7-H3 scFv clone C4I (soluble monoclonal scFv) (scFv, part only; not given: linker, domain order and HA tag, V domains shown, not shown: another chain or arm of the molecule; small tags and cut ends)
VH: B3 VH with D31G, A33Y, S50L, S53P, G54S, N99G, I101T, P102K, L103F
VL: B3 VL with S23T, A33D, Y51A, A94D, N97S, A98G
B8: anti-B7-H3 scFv clone D8G M1 (soluble monoclonal scFv) (scFv, part only; not given: linker, domain order and HA tag, V domains shown, not shown: another chain or arm of the molecule; small tags and cut ends)
VH: B1 VH
VL: B3 VL with A33S, S35T, Y51A, N52D, H54Q, S91T, A94S

Substitutions are numbered along the chain they refer to. Numbers in names are those of the source.

The first assay deals with T1, recombinant human B7-H3 protein (bought …). The assay can be described thus: ELISA on plate-coated recombinant human B7-H3. Here is the method: Specifically, after diluting the recombinant human B7-H3 protein at a concentration of 1 µg/ml and putting it into a 96-well plate (Nunc-Immuno Plates, NUNC) in 100 µl per well, it was reacted at 4° C. for 16 hrs for coating. The recombinant human B7-H3 protein used in Example 1 was used here.
Then, after removing the protein and washing it with PBST, a PBS buffer comprising 1% BSA (bovine serum albumin) was put at 200 µl per well and it was reacted at 37° C. for 2 hrs to block non-specific binding. Then, after diluting anti-B7-H3 antibodies prepared in Example 2 at a concentration of 10 µg/ml on the 96-well plate, 100 µl was put in each well and it was reacted at 37° C. for 1 hr. Then after it was washed with PBST. In order to detect antibodies bound to human B7-H3, HRP-connected anti-human IgG F(ab')2 antibody (Goat anti-Human IgG F(ab')2 Cross-Adsorbed Secondary Antibody, HRP, Pierce, 31414) was diluted by 1:10,000 in PBS comprising 1% bovine serum albumin (BSA), and 100 µl was put per well and it was reacted at 37° C. for about 1 hr. After washing it with PBST again, TMB (Tetramethylbenzidine, Sigma, T0440) 100 µl was put to develop color. After reacting it at RT for 5-10 min, 50 µl of 1N H_2SO_4 was put to finish the reaction, and the absorbance at 450 nm and 650 nm was measured by using a micro plate reader (molecular device).
For orientation: ELISA stands for enzyme-linked immunosorbent assay.
Consider B1, for which the “EC50 (read off the curve)” value was about 0.02 nM.
On the same count and under the same terms, for B2 the value was about 0.02 nM.

In a further assay the target is T2, recombinant human B7-H3 protein with a histidine tag linked to the C terminal (2318-B3/CF, R&D Systems) (human). The assay can be described thus: ELISA, soluble scFv on coated B7-H3-His 100 ng per well, anti-HA HRP.
With B3, the absorbance at 450 nm was found to be 1.
The same measure, in the same setting: for B4 the value was 1.
On the same count and under the same terms, for B5 the value was 1; for B6, 1; for B7, 1.
For B8, the absorbance at 450 nm worked out at 1.
